In the oligonucleotide strings, read from the 5' end, every base follows the letter of its sugar. An asterisk marks phosphorothioate; unmarked linkages are phosphodiester. Other units and linkages are bracketed, terminal groups are in braces. A string of capitals states the bases alone. d = 2'-deoxy (DNA)
How the values were obtained:
[1] = tested on: pAURHYG(ins)eGFP; test: In vivo correction of episomal pAURHYG(ins)eGFP in yeast; conditions: for Average colony count on hygromycin plates / hygromycin-resistant colonies per aureobasidin-resistant colony: wild-type LSY678; for Colonies on Hygromycin / Correction Efficiency / Fold: 5 μg oligo
[2] = tested on: CYC1 gene; test: CYC1 gene repair in diploid yeast strains, growth on glycerol (YPG); conditions: YMH55; 5 μg oligo
[3] = tested on: pAURHYG(x)eGFP; test: Hygromycin gene correction in yeast LSY678 with or without trichostatin A; conditions: 5 μg oligo
[4] = tested on: pAURHYG(x)eGFP; test: Strand bias of hygromycin gene correction in rad1 and rad10 yeast mutants
[5] = tested on: pAURHYG(rep)eGFP; test: Correction of pAURHYG(rep)eGFP in yeast LSY678 with or without hydroxyurea; conditions: 20 mM hydroxyurea 4 h pre-treatment; growth time 10 min; 5 μg oligo (1.62 μg Hyg10)
[6] = Cells both pre-treated and treated during recovery with 50 μg/mL trichostatin A

B1: HygE3T/74: 74-base single-stranded DNA oligonucleotide, three phosphorothioate linkages at each end, SEQ ID NO: 8 (nucleic acid)
DNA: dC*dT*dC*dGdTdGdCdTdTdTdCdAdGdCdTdTdCdGdAdTdGdTdAdGdGdAdGdGdGdCdGdTdGdGdAdTdAdCdGdTdCdCdTdGdCdGdGdGdTdAdAdAdTdAdGdCdTdGdCdGdCdCdGdAdTdGdGdTdTdTdC*dT*dA*dC
In the case of B1, the “Average colony count on hygromycin plates” value (“Average colony count” for short) ([1]; 1.0 μg oligo) is reported as 5, the “hygromycin-resistant colonies per aureobasidin-resistant colony” value ([1]; 1.0 μg oligo) is reported as 0.03 and the “Average colony count” value ([1]; 2.5 μg oligo) is reported as 47. For the same molecule, the “hygromycin-resistant colonies per aureobasidin-resistant colony” value ([1]; 2.5 μg oligo) was 0.29, the “Average colony count” value ([1]; 5.0 μg oligo) was 199 and the “hygromycin-resistant colonies per aureobasidin-resistant colony” value ([1]; 5.0 μg oligo) was 1.24. For the same molecule, the “Average colony count” value ([1]; 7.5 μg oligo) was 54, the “hygromycin-resistant colonies per aureobasidin-resistant colony” value ([1]; 7.5 μg oligo) was 0.34 and the “Average colony count” value ([1]; 10.0 μg oligo) was 17. For the same molecule, the “hygromycin-resistant colonies per aureobasidin-resistant colony” value ([1]; 10.0 μg oligo) was 1.10, the “Colonies on Hygromycin” value ([1]; Exo1 mutant) was 2 and the “Correction Efficiency” value ([1]; Exo1 mutant) was 0.01. The Fold ([1]; Exo1 mutant) was 0x, the “Colonies on Hygromycin” value ([1]; mre11 mutant) was 3 and the “Correction Efficiency” value ([1]; mre11 mutant) was 0.09. The Fold ([1]; mre11 mutant) was 0.03x, the “Colonies on Hygromycin” value ([1]; msh2 mutant) was 0 and the “Correction Efficiency” value ([1]; msh2 mutant) was 0. For the same molecule, the Fold ([1]; msh2 mutant) was 0x, the “Colonies on Hygromycin” value ([1]; msh3 mutant) was 1 and the “Correction Efficiency” value ([1]; msh3 mutant) was 0.05. For the same molecule, the Fold ([1]; msh3 mutant) was 0.02x, the “Colonies on Hygromycin” value ([1]; msh6 mutant) was 0 and the “Correction Efficiency” value ([1]; msh6 mutant) was 0. The Fold ([1]; msh6 mutant) was 0x, the “Colonies on Hygromycin” value ([1]; pms1 mutant) was 111 and the “Correction Efficiency” value ([1]; pms1 mutant) was 18.5. The Fold ([1]; pms1 mutant) was 5.35x, the “Colonies on Hygromycin” value ([1]; rad1 mutant) was 52 and the “Correction Efficiency” value ([1]; rad1 mutant) was 0.59. For the same molecule, the Fold ([1]; rad1 mutant) was 0.17x, the “Colonies on Hygromycin” value ([1]; rad2 mutant) was 113 and the “Correction Efficiency” value ([1]; rad2 mutant) was 1.79. For the same molecule, the Fold ([1]; rad2 mutant) was 0.52x, the “Colonies on Hygromycin” value ([1]; rad10 mutant) was 14 and the “Correction Efficiency” value ([1]; rad10 mutant) was 0.14. For the same molecule, the Fold ([1]; rad10 mutant) was 0.04x, the “Colonies on Hygromycin” value ([1]; rad23 mutant) was 1 and the “Correction Efficiency” value ([1]; rad23 mutant) was 0.01. For the same molecule, the Fold ([1]; rad23 mutant) was 0x, the “Colonies on Hygromycin” value ([1]; rad50 mutant) was 1 and the “Correction Efficiency” value ([1]; rad50 mutant) was 0.06. For the same molecule, the Fold ([1]; rad50 mutant) was 0.02x, the “Colonies on Hygromycin” value ([1]; rad51/52 mutant) was 3 and the “Correction Efficiency” value ([1]; rad51/52 mutant) was 0.3. The Fold ([1]; rad51/52 mutant) was 0.01x, the “Colonies on Hygromycin” value ([1]; rad51 mutant) was 19 and the “Correction Efficiency” value ([1]; rad51 mutant) was 0.59. The Fold ([1]; rad51 mutant) was 0.17x, the “Colonies on Hygromycin” value ([1]; rad52 mutant) was 31 and the “Correction Efficiency” value ([1]; rad52 mutant) was 0.86. The Fold ([1]; rad52 mutant) was 0.24x, the “Colonies on Hygromycin” value ([1]; rad54 mutant) was 0 and the “Correction Efficiency” value ([1]; rad54 mutant) was 0. The Fold ([1]; rad54 mutant) was 0x, the “Colonies on Hygromycin” value ([1]; rad55 mutant) was 0 and the “Correction Efficiency” value ([1]; rad55 mutant) was 0. The Fold ([1]; rad55 mutant) was 0X, the “Colonies on Hygromycin” value ([1]; rad57 mutant) was 34 and the “Correction Efficiency” value ([1]; rad57 mutant) was 0.33. For the same molecule, the Fold ([1]; rad57 mutant) was 0.10x, the “Colonies on Hygromycin” value ([1]; rad59 mutant) was 116 and the “Correction Efficiency” value ([1]; rad59 mutant) was 2.47. The Fold ([1]; rad59 mutant) was 0.71x, the “Colonies on Hygromycin” value ([1]; wild type) was 256 and the “Correction Efficiency” value ([1]; wild type) was 3.46. The Fold ([1]; wild type) was 1x, the “Colonies on Hygromycin” value ([1]; xrs2 mutant) was 6 and the “Correction Efficiency” value ([1]; xrs2 mutant) was 0.04. The Fold ([1]; xrs2 mutant) was 0.01x, the C.E. [2] was 0 ×10^−4 and the “No. of YPG Plate Colonies” value [2] was 0. The Correction Efficiency [3, 6] was 2.05 1/10^5, the “Hyg^r” value [3, 6] was 230 and the Correction Efficiency ([3]; Cells treated during recovery with 50 μg/mL trichostatin A) was 0.34 1/10^5. The Correction Efficiency ([3]; No treatment) was 0.16 1/10^5, the “Colonies on Hygromycin” value ([4]; rad1 mutant) was 3 and the “Colonies on Hygromycin” value ([4]; rad10 mutant) was 2. The Correction Efficiency [5] was 3.1 hygromycin resistant colonies.
